The results in this text go back to article PMC9106695, “The use of high-affinity polyhistidine binders as masking probes for the selection of an NDM-1 specific aptamer”.

For data set [1], the system named is hexa-HIS peptide (synthetic). In words: MST. The following applies: 20 mM Tris-HCl pH 7.4, 140 mM NaCl, 5 mM MgCl2, 1 mM CaCl2, 1 mM KCl; FLAA/MST with 0.1% BSA and 0.05% Tween 20 (FLAA at RT); SPR without BSA, 0.005% Tween 20 ….
Data set [2] addresses T1, HIS-NDM-1 (New Delhi metallo-beta-lactamase 1) (E. coli, UniProt C7C422 29-270). In words: FLAA; signal exceeds initial library; 20 mM Tris-HCl pH 7.4, 140 mM NaCl, 5 mM MgCl2, 1 mM CaCl2, 1 mM KCl; FLAA/MST with 0.1% BSA and 0.05% Tween 20 (FLAA at RT); SPR without BSA, 0.005% Tween 20. The settings on record: protein: commercial; tags: N-terminal His6.
For data set [3], the target named is OXA-23 beta-lactamase (A. baumannii) (Acinetobacter baumannii, UniProt Q9L4P2 18-273). Briefly: MST; 20 mM Tris pH 7.4, 140 mM NaCl, 5 mM MgCl2, 1 mM CaCl2, 1 mM KCl, 0.1% BSA, 0.05% Tween 20. The settings on record: tags: N-His6; label: 5'-Cy5.
Chain of OXA-23 beta-lactamase (A. baumannii) (Q9L4P2 18-273): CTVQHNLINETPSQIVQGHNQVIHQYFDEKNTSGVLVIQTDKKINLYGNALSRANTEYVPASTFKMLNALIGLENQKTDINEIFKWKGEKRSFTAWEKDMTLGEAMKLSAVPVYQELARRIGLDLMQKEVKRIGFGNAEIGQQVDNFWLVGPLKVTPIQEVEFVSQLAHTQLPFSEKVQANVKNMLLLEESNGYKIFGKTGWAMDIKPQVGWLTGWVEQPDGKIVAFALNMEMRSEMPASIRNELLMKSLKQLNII
Data set [4] deals with T1, HIS-NDM-1 (New Delhi …). In words: MST; 20 mM Tris-HCl pH 7.4, 140 mM NaCl, 5 mM MgCl2, 1 mM CaCl2, 1 mM KCl; FLAA/MST with 0.1% BSA and 0.05% Tween 20 (FLAA at RT); SPR without BSA, 0.005% Tween 20. The settings on record: protein: commercial, tags: N-terminal His6.
In data set [5] the target is T1, HIS-NDM-1 (New Delhi …). Briefly: SPR; aptamer immobilized; 20 mM Tris-HCl pH 7.4, 140 mM NaCl, 5 mM MgCl2, 1 mM CaCl2, 1 mM KCl; FLAA/MST with 0.1% BSA and 0.05% Tween 20 (FLAA at RT); SPR without BSA, 0.005% Tween 20. The settings on record: protein: commercial, tags: N-terminal His6. (In general: In SPR one partner is held on a chip, and binding of the other changes the refractive index at the surface.)

Data set [6] deals with CFHR1-HIS (Complement factor H-related protein 1) (UniProt Q03591 19-330). Described as above. The following applies: protein: commercial, tags: C-terminal HIS.
Chain of CFHR1-HIS (Complement factor H-related protein 1) (Q03591 19-330): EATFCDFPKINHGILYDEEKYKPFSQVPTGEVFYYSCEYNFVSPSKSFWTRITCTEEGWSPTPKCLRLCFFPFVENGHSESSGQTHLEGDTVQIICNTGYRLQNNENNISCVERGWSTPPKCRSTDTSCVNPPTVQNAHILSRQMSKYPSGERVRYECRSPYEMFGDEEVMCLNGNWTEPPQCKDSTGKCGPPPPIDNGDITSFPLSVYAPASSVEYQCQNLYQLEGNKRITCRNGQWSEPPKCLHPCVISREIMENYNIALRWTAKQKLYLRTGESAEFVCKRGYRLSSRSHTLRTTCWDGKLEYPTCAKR
Data set [7] addresses T2, mPD1-HIS (mouse Programmed cell Death protein 1) (mouse, UniProt Q02242 25-169). Described as above. The settings on record: protein: commercial, tags: C-terminal HIS.
In data set [8] the target is T1, HIS-NDM-1 (New Delhi …). In words: SPR; aptamer immobilized; text gives upper limit 4.43E-09; 20 mM Tris-HCl pH 7.4, 140 mM NaCl, 5 mM MgCl2, 1 mM CaCl2, 1 mM KCl; FLAA/MST with 0.1% BSA and 0.05% Tween 20 (FLAA at RT); SPR without BSA, 0.005% Tween 20. The settings on record: protein: commercial; tags: N-terminal His6; label: 5'-BiotinTEG (SPR kinetics); 5'-Cy5 (MST); none (screens).

The target of data set [9] is T2, mPD1-HIS (mouse Programmed cell Death …). Briefly: SPR; protein immobilized, 1 uM aptamer; 20 mM Tris-HCl pH 7.4, 140 mM NaCl, 5 mM MgCl2, 1 mM CaCl2, 1 mM KCl; FLAA/MST with 0.1% BSA and 0.05% Tween 20 (FLAA at RT); SPR without BSA, 0.005% Tween 20. The settings on record: protein: commercial; tags: C-terminal HIS.
The target of data set [10] is T1, HIS-NDM-1 (New Delhi …). Briefly: FLAA; signal exceeds initial library; not seen in SPR; 20 mM Tris-HCl pH 7.4, 140 mM NaCl, 5 mM MgCl2, 1 mM CaCl2, 1 mM KCl; FLAA/MST with 0.1% BSA and 0.05% Tween 20 (FLAA at RT); SPR without BSA, 0.005% Tween 20. The settings on record: protein: commercial; tags: N-terminal His6.
The mark [11] stands for this setting: label: 5'-BiotinTEG (SPR), 5'-Cy5 (MST), none (FLAA).
Setting [12] is: label: 5'-BiotinTEG (SPR kinetics), 5'-Cy5 (MST), none (screens).

T1 sequence (C7C422 29-270): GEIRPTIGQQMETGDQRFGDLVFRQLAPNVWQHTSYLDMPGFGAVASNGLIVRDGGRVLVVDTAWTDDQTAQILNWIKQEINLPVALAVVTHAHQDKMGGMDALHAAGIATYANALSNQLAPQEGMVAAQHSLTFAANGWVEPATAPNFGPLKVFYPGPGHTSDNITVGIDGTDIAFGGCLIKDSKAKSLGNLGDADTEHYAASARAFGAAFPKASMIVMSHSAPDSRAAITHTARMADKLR
T2 sequence (Q02242 25-169): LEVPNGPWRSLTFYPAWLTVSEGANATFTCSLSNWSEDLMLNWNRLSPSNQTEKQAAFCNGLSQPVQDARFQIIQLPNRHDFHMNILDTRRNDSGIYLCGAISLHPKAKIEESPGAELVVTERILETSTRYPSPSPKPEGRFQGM

With “GTATCTGGTGGTCTATGGCGTCATAGGTACCATGGGGGACTGCTCGGGATTGCGGATTCATGGCATAGACGACGAAGAAC [NDM1-H14-01]”, in data set [1], the equilibrium dissociation constant (Kd) amounted to 28.1 nM. That is a double-digit nanomolar value.

B1: NDM1-H14-02 (ssDNA)
DNA: GTATCTGGTGGTCTATGGCCAGTATGGCTGTTCAAGTCTTCAGAGGGTCTGCTCGGGATTGCGCATAGACGACGAAGAAC
On to B1, for which the binding result in [2] is “binds”.

B2: NDM1-H14.2_43 (ssDNA)
DNA: GTATCTGGTGGTCTATGGCCGCTATCCGCAATCTGTCTCTTTTCTTTATTCTTTTACTCACCGCATAGACGACGAAGAAC
Take B2: in data set [3], the binding result is reported as “no binding”. Also, the dissociation constant (Kd) was 2820 nM in data set [4] (setting [11]) and 745 nM in [5] (setting [11]).
Consider CGTCATAGGTACCATGGGGGACTGCTCGGGATTGCGGATTCATG (ssDNA) [NDM1-H14-01-FR], for which the Kd in [5] (label: 5'-BiotinTEG) came out at 5.91 nM; in data set [6] (label: 5'-BiotinTEG) it was 0.0286 nM; in [7] (label: 5'-BiotinTEG) it was 0.125 nM.

B3: Con1 (ssDNA)
DNA: GGGAATTCGAGCTCGGTACCGGCTGCTTTGCTGCAGATTTGTGGGTGGGTGGGTGGTGATCTGCAGGCATGCAAGCTTGG
Turning to B3, in [4] (label: 5'-Cy5), the binding result was “no binding”.

B4: NDM1-H14-01 (ssDNA)
DNA: GTATCTGGTGGTCTATGGCGTCATAGGTACCATGGGGGACTGCTCGGGATTGCGGATTCATGGCATAGACGACGAAGAAC
Take B4: the Kd in data set [6] (setting [12]) is 0.0449 nM; in data set [7] (setting [12]) it was 0.0986 nM; in data set [8], 4.34 nM.

B5: NDM1-H14-25 (ssDNA)
DNA: GTATCTGGTGGTCTATGGCAAACGTTCTGAGTTAGGCTTATTTTTCTCTCTTCCCTTCGCCGCATAGACGACGAAGAAC
As to B5, the binding result in data set [9] and in data set [10] was “binds” in each case.

As usually defined, the Kd is a measure of binding affinity in units of concentration. A lower Kd goes with a tighter complex.
